In the nanobody polyreactivity screen of Harvey et al. (2022):

Assay: yeast display, Sf9 membrane polyspecificity reagent, FACS + sequencing; frameworks hold sequencing errors
Summary of the method: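 Galactose induction of a Saccharomyces cerevisiae BJ5465 synthetic nanobody display library ran 36–48 hours. The cells were then stained for 1 hour at 4 °C with 10% biotinylated, detergent-solubilized Sf9 membrane reagent, pulled down on streptavidin microbeads and FACS-sorted into low and high (top ~1%) gates on expression and reagent-binding fluorescence. Labels for polyreactivity follow the gate of origin.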

Row | Sequence | polyreactivity (PSR sort gate)
1 | QVQLVESGGGLVQAGGSLRLSCAASGNTFRRYAMGWYRQAPGKEREFVAAISSSGGRTYYADSVKGRFTISRDNAKNTVYVQMNSLKPEDTAVYYCNAVSYWVRGEMDYWGQGTQVTVSS | high polyreactivity
2 | QVQLVESGGGLVQAGGSLRLSCAASGITFYDYAMGWYRQAPGKERELVAAISFSGSRTYYADSVKGRFTISRDNAKNTVYLQMNCLKPEDTAVYYCATDTQDLHGYSWFDYWGQGTQVTVSS | high polyreactivity
3 | QVQLVESGGGLVQAGGSLRLSCAASGGISSSNAMGWYRPAPGKERELVAGINSRGGSTYADSVKGRFTISRDNAKHTVYLQMNSLKPEDTAVYYCAAAPTFKWRRNNYDYWGQGTQVTVSS | high polyreactivity
4 | QVQLVESGGGLVQAGGSLRLSCAASGGTFDPSAMGWYRQAPGKERDFVAAISWSGGRTYYADSVKGRFTISRDNAKNTVYLQMNSLKPEDTAVYYCAATSVGYAQRRYGYWGQGTQVTVSS | high polyreactivity
5 | QVQLEVSGGGLVQAGGSIRLSCAASGSTFGGNAMGWYRQAPRKERELVAAIDSGGSTYADSVKGRFTISRDNAKNTVYLQMNSLKPEDTAVYYCADWFSAYYSLYRHRGYWGQGTQVTVSS | low polyreactivity
6 | QVQLVESGGGLVQAGGSLRLSCAASGRTFEWNAMGWYRQAPGKERELVAAITKRGGITYYADSVKGRFTISRDNAKNTVYLQMNSLKPEDTAVYYCAKRIVFYGRYDYWGQGTQVTVSS | high polyreactivity
7 | QVHRVESGGRLVPAGGSLRLSCAASGFTFSVNAMGWYTPPPGKEMELVAAISSGGSTSYADSVKGRFTISRDNAKNTVYLQMNSLKPEDTAVYYCAAEYHSAGSLYTYSKYYHWGQGTQVTVSS | low polyreactivity
8 | QVQLVESGGGLVQAGGSLRLSCAASGRTLYYYGMGWYRQAPGKERELVASITNGGNTNYADSVKGRFTISRDNAKNTVYLQMNSLKPEDTAVYYCAKDVPYWRPVVRYDYWGQGTQVTVSS | low polyreactivity
9 | QVQLVESGGGLVQAGGSLRLSCAASGRTFRYYAIGWYRQAPGKERELVAAISSSGASTYDAESVKGRFTISRDNAKYTVYLQMNSLKPEDTAVYYCRSGILFYSRYDYWGQGTQVTVSS | low polyreactivity
10 | QVQLVESGGGIVQAGGSLRLSCAASGFIFWKNAMGWYSQAPGKERELVAAISTRGGSTYYADSVKGRFTISRDNAKNTVYLQMNSLKPEDTAVYYCNKEWYPYKHNYWGQGTQVTVSS | low polyreactivity
11 | QVQLVESGGGLVQAGGSLRLSCAASGFIFGSIVMGWYRQAPGKERELVAAISKRGGTTYYADSVKGRFTISRDNAKNPVYLQMNSLKPEDTAVYYCAVEWCFRRNGRMDYWGQGTQVTVSS | high polyreactivity
12 | QVQLVESGGGLVQAGGSLRLSCAASGSIFITYAMGWYRQAPGKERELVAAITWRGGSTYYADSVKGRFTISRDNAKNTVYLQMNSLKPEDTAVYYCAAEDFYYRSQYRYWYDYWGQGTQVTVSS | high polyreactivity
13 | QVQLVESGGGLVQAGGSLRLSCAASGLTIYHYAMGWYRQAPGKERELVAAISWNGGSTYYADSVKGRFTFSRDNAKNTVYLQMNSLKPEDTAVYYCAVVFNPHRYTGVLAGYDYWGQGTQVTVSS | high polyreactivity
14 | QVQLVESGGGLVQAGGSLRLSCAASGSIFTDNVMGWYSQAPGKERELVAAITYSAASTYYADSVKGRFTISRDNAKNTVYLQMNSLKPEDTAVYYCNARIIYRKWLFRSGTFNYWGQGTQVTVSS | low polyreactivity
15 | QVQLVESGGGLVQAGGSLRLSCAASGRIFYSYAMGWYRQAPGKERELVAAITESGGSTNYADSVKGRFTISRDNAKNTVYLQMNSLKPEDTEVYYCNARYKLTFNLYNYWGQGTQETVSS | low polyreactivity
16 | QVQLVESGGGLVQAGGSLRLSCAASGSTFVRYAMGWYRQAPGKEWELVARISGRSGSTYYADSEKGRFTISRDNAKNTVYLQMNSLKPEDTAVYFCAARAWYRVYAYDVWGQGTQVTVSS | high polyreactivity
17 | QVQLVESGGGLVQAGGSLRLSCAASGSIFLYYAMGWYIQAPGKERELVAGIRRGGRTNYADSVKGRFTISRDNAKNTVYLQMNSLKPEDTAVYYCAKGGYWGHGTQVTVSS | high polyreactivity
